# Test results: patent publication US20110123511
# How the values were obtained:
# [1] = test system: H3 peptide containing residues 15-30
# [2] = test system: GST-fusion histone H3 peptide (residues 1-57), K27R mutant [GST: P08515]
# [3] = test system: GST-fusion histone H3 peptide (residues 1-57), wild-type
# [4] = test system: H3 peptide phosphorylated at S28
# [5] = test system: full-length free histone H3 (individual core histone)
# [6] = test system: peptide containing H3 residues 1-20
# [7] = test system: H3 peptide previously di-methylated at K27
substance,measurement,setting,value
SET protein from chlorella virus MA-1D,methylation activity with H3 peptides (14C-methyl-SAM),[1],these viral SET proteins only methylated a H3 peptide containing residues 15-30 but not a peptide containing H3 residues 1-20
same,histone methyltransferase activity,core histone H4,the SET proteins from these 3 viruses selectively methylate H3 (data not shown)
same,HMT activity on GST-histone H3 (residues 1-57),[2],these viral SET proteins had robust methylation activity on wild-type H3 but little or diminished activity on the K27R mutant
same,histone methyltransferase activity,core histone H2A,the SET proteins from these 3 viruses selectively methylate H3 (data not shown)
same,HMT activity on GST-histone H3 (residues 1-57),[3],these viral SET proteins had robust methylation activity on wild-type H3 but little or diminished activity on the K27R mutant
same,methylation activity with H3 peptides (14C-methyl-SAM),[4],They showed little methyltransferase activity if the H3 peptide was previously di-methylated at K27 or phosphorylated at S28
same,histone methyltransferase activity,[5],the SET proteins from these 3 viruses selectively methylate H3 (data not shown)
same,methylation activity with H3 peptides (14C-methyl-SAM),[6],these viral SET proteins only methylated a H3 peptide containing residues 15-30 but not a peptide containing H3 residues 1-20
same,methylation activity with H3 peptides (14C-methyl-SAM),[7],They showed little methyltransferase activity if the H3 peptide was previously di-methylated at K27 or phosphorylated at S28
same,histone methyltransferase activity,core histone H2B,the SET proteins from these 3 viruses selectively methylate H3 (data not shown)
SET protein from chlorella virus NY-2A,methylation activity with H3 peptides (14C-methyl-SAM),[1],these viral SET proteins only methylated a H3 peptide containing residues 15-30 but not a peptide containing H3 residues 1-20
same,histone methyltransferase activity,core histone H4,the SET proteins from these 3 viruses selectively methylate H3 (data not shown)
same,HMT activity on GST-histone H3 (residues 1-57),[2],these viral SET proteins had robust methylation activity on wild-type H3 but little or diminished activity on the K27R mutant
same,histone methyltransferase activity,core histone H2A,the SET proteins from these 3 viruses selectively methylate H3 (data not shown)
same,HMT activity on GST-histone H3 (residues 1-57),[3],these viral SET proteins had robust methylation activity on wild-type H3 but little or diminished activity on the K27R mutant
same,methylation activity with H3 peptides (14C-methyl-SAM),[4],They showed little methyltransferase activity if the H3 peptide was previously di-methylated at K27 or phosphorylated at S28
same,histone methyltransferase activity,[5],the SET proteins from these 3 viruses selectively methylate H3 (data not shown)
same,methylation activity with H3 peptides (14C-methyl-SAM),[6],these viral SET proteins only methylated a H3 peptide containing residues 15-30 but not a peptide containing H3 residues 1-20
same,methylation activity with H3 peptides (14C-methyl-SAM),[7],They showed little methyltransferase activity if the H3 peptide was previously di-methylated at K27 or phosphorylated at S28
same,histone methyltransferase activity,core histone H2B,the SET proteins from these 3 viruses selectively methylate H3 (data not shown)
SET protein from chlorella virus NY-2B,methylation activity with H3 peptides (14C-methyl-SAM),[1],these viral SET proteins only methylated a H3 peptide containing residues 15-30 but not a peptide containing H3 residues 1-20
same,histone methyltransferase activity,core histone H4,the SET proteins from these 3 viruses selectively methylate H3 (data not shown)
same,HMT activity on GST-histone H3 (residues 1-57),[2],these viral SET proteins had robust methylation activity on wild-type H3 but little or diminished activity on the K27R mutant
same,histone methyltransferase activity,core histone H2A,the SET proteins from these 3 viruses selectively methylate H3 (data not shown)
same,HMT activity on GST-histone H3 (residues 1-57),[3],these viral SET proteins had robust methylation activity on wild-type H3 but little or diminished activity on the K27R mutant
same,methylation activity with H3 peptides (14C-methyl-SAM),[4],They showed little methyltransferase activity if the H3 peptide was previously di-methylated at K27 or phosphorylated at S28
same,histone methyltransferase activity,[5],the SET proteins from these 3 viruses selectively methylate H3 (data not shown)
same,methylation activity with H3 peptides (14C-methyl-SAM),[6],these viral SET proteins only methylated a H3 peptide containing residues 15-30 but not a peptide containing H3 residues 1-20
same,methylation activity with H3 peptides (14C-methyl-SAM),[7],They showed little methyltransferase activity if the H3 peptide was previously di-methylated at K27 or phosphorylated at S28
same,histone methyltransferase activity,core histone H2B,the SET proteins from these 3 viruses selectively methylate H3 (data not shown)
